Source: IntAct's records for PubMed 10393177

B1: Stress-activated protein kinase jnk-1 (Caenorhabditis elegans), Q8WQG9 (parent)
chain: MEERLSTTSSYPSHPGRSVEEDHNTLLASSSISSIIRGTRGHLNNFIESVGNWLVPSSSGRDDDAVSLDSCQSVYSPVRHHINSGTGGGILMEPSSIHVPENYYSVTIGEAQMVVLKRYQNLRLIGSGAQGIVCSAFDTVRNEQVAIKKLSRPFQNVTHAKRAYRELKLMSLVNHKNIIGILNCFTPQKKLDEFNDLYIVMELMDANLCQVIQMDLDHERLSYLLYQMLCGIRHLHSAGIIHRDLKPSNIVVRSDCTLKILDFGLARTAIEAFMMTPYVVTRYYRAPEVILGMGYKENVDVWSIGCIFGELIRGRVLFPGGDHIDQWTRIIEQLGTPDRSFLERLQPTVRNYVENRPRYQATPFEVLFSDNMFPMTADSSRLTGAQARDLLSRMLVIDPERRISVDDALRHPYVNVWFDEIEVYAPPPLPYDHNMDVEQNVDSWREHIFRELTDYARTHDIYS

Variants of: B1
Conditions: with jun_human JUN

Row | effect of a mutation on the interaction | Variant
1 | disrupting interaction | K148R
